# T1: WT G-CSFR(Ig-CRH), purified, tag cleaved (human, UniProt Q99062 26-331)
# T1 construct: also called G-CSFRWT; wild type G-CSFR ECD
# T1 chain: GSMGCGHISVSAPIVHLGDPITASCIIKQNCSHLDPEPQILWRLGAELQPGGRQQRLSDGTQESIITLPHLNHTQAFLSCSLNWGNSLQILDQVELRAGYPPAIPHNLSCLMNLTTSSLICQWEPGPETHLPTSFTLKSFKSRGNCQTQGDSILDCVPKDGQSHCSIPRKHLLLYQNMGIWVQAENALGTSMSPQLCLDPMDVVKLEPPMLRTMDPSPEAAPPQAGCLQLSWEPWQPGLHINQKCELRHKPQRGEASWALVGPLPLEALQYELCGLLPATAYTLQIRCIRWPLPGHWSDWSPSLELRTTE
# T2: G-CSFR(Ig-CRH)E design 9, purified, tag cleaved (human, UniProt Q99062 26-331)
# T2 construct: SPR protein; also called Design 9 G-CSFR(Ig-CRH)E
# T2 chain: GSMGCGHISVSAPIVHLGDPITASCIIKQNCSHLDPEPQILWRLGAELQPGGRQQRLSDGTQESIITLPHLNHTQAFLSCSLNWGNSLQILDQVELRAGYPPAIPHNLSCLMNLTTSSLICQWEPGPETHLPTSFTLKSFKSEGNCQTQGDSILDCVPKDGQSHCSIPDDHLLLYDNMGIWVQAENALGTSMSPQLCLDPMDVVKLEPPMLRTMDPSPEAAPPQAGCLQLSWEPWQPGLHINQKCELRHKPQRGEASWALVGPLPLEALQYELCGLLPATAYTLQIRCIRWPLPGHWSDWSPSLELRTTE
# T3: WT G-CSF, purified, tag cleaved (human, UniProt P09919 31-206)
# T3 construct: also called G-CSFWT
# T3 sequence: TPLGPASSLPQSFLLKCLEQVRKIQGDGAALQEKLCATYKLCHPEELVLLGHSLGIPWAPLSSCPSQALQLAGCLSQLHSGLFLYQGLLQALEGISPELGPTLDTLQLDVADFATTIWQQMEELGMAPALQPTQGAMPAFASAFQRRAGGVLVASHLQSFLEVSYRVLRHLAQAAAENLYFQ
# T4: G-CSFR(Ig-CRH)E design 30, purified, tag cleaved (human, UniProt Q99062 26-331)
# T4 construct: also called Design 30 G-CSFR(Ig-CRH)E
# T4 chain: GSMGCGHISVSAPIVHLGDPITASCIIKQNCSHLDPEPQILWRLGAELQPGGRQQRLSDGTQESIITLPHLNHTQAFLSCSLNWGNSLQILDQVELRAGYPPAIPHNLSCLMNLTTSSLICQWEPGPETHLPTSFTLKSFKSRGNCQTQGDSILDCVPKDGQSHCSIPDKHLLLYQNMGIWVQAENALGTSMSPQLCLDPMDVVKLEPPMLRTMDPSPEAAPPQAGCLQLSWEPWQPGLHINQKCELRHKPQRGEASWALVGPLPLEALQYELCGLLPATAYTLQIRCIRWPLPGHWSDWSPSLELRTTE
# B1: G-CSFE design 9, purified, tag cleaved (ligand)
# chain: TPLGPASSLPQSFLLKCLEQVRKIQGDGAALQEKLCATYKLCHPEELVLLGHSLGIPWAPLSSCPSQALQLAGCLSQLHSGLFLYQGLLQALEGISPELGPTLRTLQKDVARFATTIWRQMKELGMAPALQPTQGAMPAFASAFQRRAGGVLVASHLQSFLEVSYRVLRHLAQAAAENLYFQ
# notes: also called Design 9 G-CSFE
# B2: G-CSFR(Ig-CRH)E design 303, purified, tag cleaved (receptor)
# chain: GSMGCGHISVSAPIVHLGDPITASCIIKQNCSHLDPEPQILWRLGAELQPGGRQQRLSDGTQESIITLPHLNHTQAFLSCSLNWGNSLQILDQVKLRAGYPPAIPHNLSCLMNLTTSSLICQWEPGPETHLPTSFTLKSFKSRGNCQTQGDSILDCVPKDGQSHCSIPDKHLLLYQNMGIWVQAENALGTSMSPQLCLDPMDVVKLEPPMLRTMDPSPEAAPPQAGCLQLSWEPWQPGLHINQKCELRHKPQRGEASWALVGPLPLEALQYELCGLLPATAYTLQIRCIRWPLPGHWSDWSPSLELRTTE
# notes: SPR protein; also called Design 303 G-CSFR(Ig-CRH)E
# B3: G-CSFE design 134, purified, tag cleaved (ligand)
# chain: TPLGPASSLPQSFLLKCLEQVRKIQGDGAALQEKLCATYKLCHPERLVLLGHSLGIPWAPLSSCPSQALQLAGCLSQLHSGLFLYQGLLQALEGISPELGPTLDTLQKDVARFATTIWQQMRRLGMAPALQPTQGAMPAFASAFQRRAGGVLVASHLQSFLEVSYRVLRHLAQAAAENLYFQ
# notes: also called Design #134 G-CSFE
# B4: G-CSFE design 30, purified, tag cleaved (ligand)
# chain: TPLGPASSLPQSFLLKCLEQVRKIQGDGAALQEKLCATYKLCHPEELVLLGHSLGIPWAPLSSCPSQALQLAGCLSQLHSGLFLYQGLLQALEGISPELGPTLDTLQKDVARFATTIWQQMEELGMAPALQPTQGAMPAFASAFQRRAGGVLVASHLQSFLEVSYRVLRHLAQAAAENLYFQ
# notes: also called Design 30 G-CSFE
# B5: G-CSFR(Ig-CRH)E design 401, purified, tag cleaved (receptor)
# chain: GSMGCGHISVSAPIVHLGDPITASCIIKQNCSHLDPEPQILWELGAELQPGGRQQRLSDGTQESIITLPHLNHTQAFLSCSLNWGNSLQILDQVELRAGYPPAIPHNLSCLMNLTTSSLICQWEPGPETHLPTSFTLKSFKSRGNCQTQGDSILDCVPKDGQSHCSIPDKHLLLYQNMGIWVQAENALGTSMSPQLCLDPMDVVKLEPPMLRTMDPSPEAAPPQAGCLQLSWEPWQPGLHINQKCELRHKPQRGEASWALVGPLPLEALQYELCGLLPATAYTLQIRCIDWPLPGHWSDWSPSLELRTTE
# notes: SPR protein; also called Design 401 G-CSFR(Ig-CRH)E
# B6: G-CSFR(Ig-CRH)E design 402, purified, tag cleaved (receptor)
# chain: GSMGCGHISVSAPIVHLGDPITASCIIKQNCSHLDPEPQILWELGAELQPGGRQQRLSDGTQESIITLPHLNHTQAFLSCSLNWGNSLQILDQVELRAGYPPAIPHNLSCLMNLTTSSLICQWEPGPETHLPTSFTLKSFKSRGNCQTQGDSILDCVPKDGQSHCSIPEKHLLLYENMGIWVQAENALGTSMSPQLCLDPMDVVKLEPPMLRTMDPSPEAAPPQAGCLQLSWEPWQPGLHINQKCELRHKPQRGEASWALVGPLPLEALQYELCGLLPATAYTLQIRCIEWPLPGHWSDWSPSLELRTTE
# notes: SPR protein; also called Design 402 G-CSFR(Ig-CRH)E
# B7: G-CSFR(Ig-CRH)E design 130, purified, tag cleaved (receptor)
# chain: GSMGCGHISVSAPIVHLGDPITASCIIKQNCSHLDPEPQILWELGAELQPGGRQQRLSDGTQESIITLPHLNHTQAFLSCSLNWGNSLQILDQVELRAGYPPAIPHNLSCLMNLTTSSLICQWEPGPETHLPTSFTLKSFKSRGNCQTQGDSILDCVPKDGQSHCSIPDKHLLLYQNMGIWVQAENALGTSMSPQLCLDPMDVVKLEPPMLRTMDPSPEAAPPQAGCLQLSWEPWQPGLHINQKCELRHKPQRGEASWALVGPLPLEALQYELCGLLPATAYTLQIRCIRWPLPGHWSDWSPSLELRTTE
# notes: SPR protein; also called Design 130 G-CSFR(Ig-CRH)E
# B8: G-CSFR(Ig-CRH)E design 307, purified, tag cleaved (receptor)
# chain: GSMGCGHISVSAPIVHLGDPITASCIIKQNCSHLDPEPQILWELGAELQPGGRQQRLSDGTQESIITLPHLNHTQAFLSCSLNWGNSLQILDQVELRAGYPPAIPHNLSCLMNLTTSSLICQWEPGPETHLPTSFTLKSFKSRGNCQTQGDSILDCVPKDGQSHCSIPRKHLLLYQNMGIWVQAENALGTSMSPQLCLKPMKVVKLEPPMLRTMDPSPEAAPPQAGCLQLSWEPWQPGLHINQKCELRHKPQRGEASWALVGPLPLEALQYELCGLLPATAYTLQIRCIEWPLPGHWSDWSPSLELRTTE
# notes: SPR protein; also called Design 307 G-CSFR(Ig-CRH)E
# B9: G-CSFR(Ig-CRH)E design 304, purified, tag cleaved (receptor)
# chain: GSMGCGHISVSAPIVHLGDPITASCIIKQNCSHLDPEPQILWELGAELQPGGRQQRLSDGTQESIITLPHLNHTQAFLSCSLNWGNSLQILDQVKLRAGYPPAIPHNLSCLMNLTTSSLICQWEPGPETHLPTSFTLKSFKSRGNCQTQGDSILDCVPKDGQSHCSIPDKHLLLYQNMGIWVQAENALGTSMSPQLCLDPMDVVKLEPPMLRTMDPSPEAAPPQAGCLQLSWEPWQPGLHINQKCELRHKPQRGEASWALVGPLPLEALQYELCGLLPATAYTLQIRCIRWPLPGHWSDWSPSLELRTTE
# notes: SPR protein; also called Design 304 G-CSFR(Ig-CRH)E
# B10: G-CSFR(Ig-CRH)E design 300, purified, tag cleaved (receptor)
# chain: GSMGCGHISVSAPIVHLGDPITASCIIKQNCSHLDPEPQILWRLGAELQPGGRQQRLSDGTQESIITLPHLNHTQAKLSCSLNWGNSLQILDKVELRAGYPPAIPHNLSCLMNLTTSSLICQWEPGPETHLPTSFTLKSFKSRGNCQTQGDSILDCVPKDGQSHCSIPDKHLLLYQNMGIWVQAENALGTSMSPQLCLDPMDVVKLEPPMLRTMDPSPEAAPPQAGCLQLSWEPWQPGLHINQKCELRHKPQRGEASWALVGPLPLEALQYELCGLLPATAYTLQIRCIRWPLPGHWSDWSPSLELRTTE
# notes: SPR protein; also called Design 300 G-CSFR(Ig-CRH)E
# B11: G-CSFE design 117, purified, tag cleaved (ligand)
# chain: TPLGPASSLPQSFLLKCLEQVRKIQGDGAALQEKLCATYKLCHPERLVLLGHSLGIPWAPLSSCPSQALQLAGCLSQLHSGLFLYQGLLQALEGISPELGPTLDTLQLDVADFATTIWQQMRRLGMAPALQPTQGAMPAFASAFQRRAGGVLVASHLQSFLEVSYRVLRHLAQAAAENLYFQ
# notes: also called Design 117 G-CSFE
# B12: G-CSFR(Ig-CRH)E design 134 (R41E_R141E_R167D), purified, tag cleaved (receptor)
# chain: GSMGCGHISVSAPIVHLGDPITASCIIKQNCSHLDPEPQILWELGAELQPGGRQQRLSDGTQESIITLPHLNHTQAFLSCSLNWGNSLQILDQVELRAGYPPAIPHNLSCLMNLTTSSLICQWEPGPETHLPTSFTLKSFKSEGNCQTQGDSILDCVPKDGQSHCSIPDKHLLLYQNMGIWVQAENALGTSMSPQLCLDPMDVVKLEPPMLRTMDPSPEAAPPQAGCLQLSWEPWQPGLHINQKCELRHKPQRGEASWALVGPLPLEALQYELCGLLPATAYTLQIRCIRWPLPGHWSDWSPSLELRTTE
# notes: also called Design 134 G-CSFR(Ig-CRH)E; design 137 G-CSFR(Ig-CRH)E
# What was measured:
# [1] = molecular target: T1, WT G-CSFR(Ig-CRH), purified, tag cleaved; assay: SPR (Biacore T200)
# [2] = molecular target: T2, G-CSFR(Ig-CRH)E design 9, purified, tag …; assay: SPR (Biacore T200), G-CSFR(Ig-CRH)E amine-coupled, G-CSFE injected; KD relative to WT:WT control (larger = weaker)
# Description: (§1) The SPR binding assays were carried out on a Biacore T200 instrument (GE Healthcare, Mississauga, ON, Canada) with PBS-T (PBS+0.05% (v/v) Tween 20) running buffer at a temperature of 25° C. CMS Series S sensor chip, Biacore amine coupling kit (NHS, EDC and 1 M ethanolamine), and 10 mM sodium acetate buffers were all purchased from GE Healthcare. PBS running buffer with 0.05% Tween20 (PBS-T) was purchased from Teknova Inc. (Hollister, CA).
# (§2) To determine binding affinity of G-CSFE to G-CSFRE the G-CSFRE mutant was captured by standard amine coupling as described by the manufacturer (GE LifeSciences). Briefly, immediately after EDC/NHS activation, a 5 μg/mL solution of G-CSFRE in 10 mM NaOAc, pH 5.0, was injected at a flow rate of 5 μL/min until a receptor density of ˜700-900 RU was reached. The remaining active groups were quenched by a 420 s injection of 1 M ethanolamine hydrochloride-NaOH pH 8.5 at 10 μL/min. Using single-cycle kinetics, six concentrations of a two-fold dilution series of the corresponding G-CSFE mutant starting at 200 nM with a blank buffer control were sequentially injected at 25 μL/min for 300s with a 1800s dissociation phase, resulting in a set of sensorgrams with a buffer blank reference. The same sample titration was also performed on a reference cell with no variants captured. The chip was regenerated to prepare for the next injection cycle by one pulse of 10 mM glycine/HCl, pH 2.0, for 30 s at 30 μL/min.
# (§3) Double-referenced sensorgrams from duplicate or triplicate repeat injections were analyzed using Biacore™ T200 Evaluation Software v3.0 and fit to the 1:1 Langmuir binding model.
# [3] = molecular target: T1, WT G-CSFR(Ig-CRH), purified, tag cleaved; assay: SPR (Biacore T200), WT G-CSFR(Ig-CRH) amine-coupled, G-CSFE injected; KD relative to WT:WT control (larger = weaker)
# [4] = molecular target: T3, WT G-CSF, purified, tag cleaved; assay: SPR (Biacore T200)
# [5] = molecular target: B12; assay: SPR (Biacore T200), G-CSFR(Ig-CRH)E amine-coupled, G-CSFE injected; KD relative to WT:WT control (larger = weaker)
# Description: as §1, §2, §3
# [6] = molecular target: T4, G-CSFR(Ig-CRH)E design 30, purified, …; assay: as above
# Description: as §1, §2, §3
Binder,KD fold change (vs WT:WT) [3],binding result [4],also measured
B1,79 fold,–,fold weaker KD (vs WT:WT) [1]: ≥ 20 fold; KD fold change (vs WT:WT) [2]: 1.2 fold
B2,–,no binding,–
B3,465 fold,–,fold weaker affinity (vs WT:WT) [1]: ~500 fold; KD fold change (vs WT:WT) [5]: 1 fold
B4,20 fold,–,fold weaker KD (vs WT:WT) [1]: ≥ 20 fold; KD fold change (vs WT:WT) [6]: 11 fold
B5,–,no binding,–
B6,–,no binding,–
B7,–,no binding,–
B8,–,no binding,–
B9,–,no binding,–
B10,–,no binding,–
B11,3.4 fold,–,–
B12,–,no binding,–
